In patent US20250019440A1 (Zymeworks, published 2025):

B1: v38740 (other)
heavy 1: EVQLVESGGGLVQPGGSLRLSCAASGVTFNYYGMSWIRQAPGKGLEWVASITSSGGRIYYPDSVKGRFTISRENTQKTLYLQMNSLRAEDTAVYYCTLDGRDGWVAYWGQGTLVTVSSASTKGPSVFPLAPSSKSTSGGTAALGCLVKDYFPEPVTVSWNSGALTSGVHTFPAVLQSSGLYSLSSVVTVPSSSLGTQTYICNVNHKPSNTKVDKKVEPKSCDKTHTCPPCPAPEAAGGPSVFLFPPKPKDTLMISRTPEVTCVVVSVSHEDPEVKFNWYVDGVEVHNAKTKPREEQYNSTYRVVSVLTVLHQDWLNGKEYKCKVSNKALPAPIEKTISKAKGQPREPQVYVYPPSRDELTKNQVSLTCLVKGFYPSDIAVEWESNGQPENNYKTTPPVLDSDGSFALVSKLTVDKSRWQQGNVFSCSVMHEALHNHYTQKSLSLSPGGGGGSGDRPWNPPTFSPALLVVTEGDNATFTCSFSNTSESFVLNWYRMSPSNQTDKLAAFPEDRSQPGQDARFRVTQLPNGRDFHMSVVRARRNDSGTYLCGAISLAPKAQIKESLRAELRVTE
light: NFMLTQPHSVSESPGKTVTISCKRNTGNIGSNYVNWYQQHEGSSPTTIIYRNDKRPDGVSDRFSGSIDRSSKSASLTISNLKTEDEADYFCQSYSSGFIFGGGTKLTVLGQPKAAPSVTLFPPSSEELQANKATLVCLISDFYPGAVTVAWKADSSPVKAGVETTTPSKQSNNKYAASSYLSLTPEQWKSHRSYSCQVTHEGSTVEKTVAPTECS
heavy 2: QVQLVESGGGLVQPGGSLRLSCSVSGIDLSSNPMIWVRQAPGKGLQYIGIIDTDGSTYYADWAKGRFTISKDSTTVYLQINSPRAEDTAVYYCARRLHGSSNGYYDDLWGQGTLVTVSSGGGGSGGGGSGGGGSGGGGSDGQMTQSPSSVSASVGDRVTITCQASQSIYSYLSWYQQKPGQRPKLLIYKASTLASGVPSRFSGSGSGTDFTLTISSVQPEDFATYYCQQGYTVTNVDKNTFGGGTKVEIKAAEPKSSDKTHTCPPCPAPEAAGGPSVFLFPPKPKDTLMISRTPEVTCVVVSVSHEDPEVKFNWYVDGVEVHNAKTKPREEQYNSTYRVVSVLTVLHQDWLNGKEYKCKVSNKALPAPIEKTISKAKGQPREPQVYVLPPSRDELTKNQVSLLCLVKGFYPSDIAVEWESNGQPENNYLTWPPVLDSDGSFFLYSKLTVDKSRWQQGNVFSCSVMHEALHNHYTQKSLSLSPG
notes: CD3 Fab x Cldn18.2 scFv Fc, wildtype (WT) PD-1 attached to HC1 (C-term)
B2: v38741 (other)
heavy 1: EVQLVESGGGLVQPGGSLRLSCAASGVTFNYYGMSWIRQAPGKGLEWVASITSSGGRIYYPDSVKGRFTISRENTQKTLYLQMNSLRAEDTAVYYCTLDGRDGWVAYWGQGTLVTVSSASTKGPSVFPLAPSSKSTSGGTAALGCLVKDYFPEPVTVSWNSGALTSGVHTFPAVLQSSGLYSLSSVVTVPSSSLGTQTYICNVNHKPSNTKVDKKVEPKSCDKTHTCPPCPAPEAAGGPSVFLFPPKPKDTLMISRTPEVTCVVVSVSHEDPEVKFNWYVDGVEVHNAKTKPREEQYNSTYRVVSVLTVLHQDWLNGKEYKCKVSNKALPAPIEKTISKAKGQPREPQVYVYPPSRDELTKNQVSLTCLVKGFYPSDIAVEWESNGQPENNYKTTPPVLDSDGSFALVSKLTVDKSRWQQGNVFSCSVMHEALHNHYTQKSLSLSPGGGGGSGQVQLVESGGGLVQPGGSLRLSCSVSGIDLSSNPMIWVRQAPGKGLQYIGIIDTDGSTYYADWAKGRFTISKDSTTVYLQINSPRAEDTAVYYCARRLHGSSNGYYDDLWGQGTLVTVSSGGGGSGGGGSGGGGSGGGGSDGQMTQSPSSVSASVGDRVTITCQASQSIYSYLSWYQQKPGQRPKLLIYKASTLASGVPSRFSGSGSGTDFTLTISSVQPEDFATYYCQQGYTVTNVDKNTFGGGTKVEIK
light: NPPTFSPALLVVTEGDNATFTCSFSNTSESFRLVWHRESPGYETDTLASFPEDRSTPLPDARFRVTQLPNGRDFHMSVVRARRNDSGTYVCGAIAFHPVIQIKESLRAELRVTEGGGGSGNFMLTQPHSVSESPGKTVTISCKRNTGNIGSNYVNWYQQHEGSSPTTIIYRNDKRPDGVSDRFSGSIDRSSKSASLTISNLKTEDEADYFCQSYSSGFIFGGGTKLTVLGQPKAAPSVTLFPPSSEELQANKATLVCLISDFYPGAVTVAWKADSSPVKAGVETTTPSKQSNNKYAASSYLSLTPEQWKSHRSYSCQVTHEGSTVEKTVAPTECS
heavy 2: QVQLVESGGGLVQPGGSLRLSCSVSGIDLSSNPMIWVRQAPGKGLQYIGIIDTDGSTYYADWAKGRFTISKDSTTVYLQINSPRAEDTAVYYCARRLHGSSNGYYDDLWGQGTLVTVSSGGGGSGGGGSGGGGSGGGGSDGQMTQSPSSVSASVGDRVTITCQASQSIYSYLSWYQQKPGQRPKLLIYKASTLASGVPSRFSGSGSGTDFTLTISSVQPEDFATYYCQQGYTVTNVDKNTFGGGTKVEIKAAEPKSSDKTHTCPPCPAPEAAGGPSVFLFPPKPKDTLMISRTPEVTCVVVSVSHEDPEVKFNWYVDGVEVHNAKTKPREEQYNSTYRVVSVLTVLHQDWLNGKEYKCKVSNKALPAPIEKTISKAKGQPREPQVYVLPPSRDELTKNQVSLLCLVKGFYPSDIAVEWESNGQPENNYLTWPPVLDSDGSFFLYSKLTVDKSRWQQGNVFSCSVMHEALHNHYTQKSLSLSPG
B3: v38744 (other)
heavy 1: EVQLVESGGGLVQPGGSLRLSCAASGVTFNYYGMSWIRQAPGKGLEWVASITSSGGRIYYPDSVKGRFTISRENTQKTLYLQMNSLRAEDTAVYYCTLDGRDGWVAYWGQGTLVTVSSASTKGPSVFPLAPSSKSTSGGTAALGCLVKDYFPEPVTVSWNSGALTSGVHTFPAVLQSSGLYSLSSVVTVPSSSLGTQTYICNVNHKPSNTKVDKKVEPKSCDKTHTCPPCPAPEAAGGPSVFLFPPKPKDTLMISRTPEVTCVVVSVSHEDPEVKFNWYVDGVEVHNAKTKPREEQYNSTYRVVSVLTVLHQDWLNGKEYKCKVSNKALPAPIEKTISKAKGQPREPQVYVYPPSRDELTKNQVSLTCLVKGFYPSDIAVEWESNGQPENNYKTTPPVLDSDGSFALVSKLTVDKSRWQQGNVFSCSVMHEALHNHYTQKSLSLSPGGGGGSGQVQLVESGGGLVQPGGSLRLSCSVSGIDLSSNPMIWVRQAPGKGLQYIGIIDTDGSTYYADWAKGRFTISKDSTTVYLQINSPRAEDTAVYYCARRLHGSSNGYYDDLWGQGTLVTVSSGGGGSGGGGSGGGGSGGGGSDGQMTQSPSSVSASVGDRVTITCQASQSIYSYLSWYQQKPGQRPKLLIYKASTLASGVPSRFSGSGSGTDFTLTISSVQPEDFATYYCQQGYTVTNVDKNTFGGGTKVEIK
light: NPPTFSPALLVVTEGDNATFTCSFSNTSESFVLNWYRMSPSNQTDKLAAFPEDRSQPGQDARFRVTQLPNGRDFHMSVVRARRNDSGTYLCGAISLAPKAQIKESLRAELRVTEGGGGSGNFMLTQPHSVSESPGKTVTISCKRNTGNIGSNYVNWYQQHEGSSPTTIIYRNDKRPDGVSDRFSGSIDRSSKSASLTISNLKTEDEADYFCQSYSSGFIFGGGTKLTVLGQPKAAPSVTLFPPSSEELQANKATLVCLISDFYPGAVTVAWKADSSPVKAGVETTTPSKQSNNKYAASSYLSLTPEQWKSHRSYSCQVTHEGSTVEKTVAPTECS
heavy 2: QVQLVESGGGLVQPGGSLRLSCSVSGIDLSSNPMIWVRQAPGKGLQYIGIIDTDGSTYYADWAKGRFTISKDSTTVYLQINSPRAEDTAVYYCARRLHGSSNGYYDDLWGQGTLVTVSSGGGGSGGGGSGGGGSGGGGSDGQMTQSPSSVSASVGDRVTITCQASQSIYSYLSWYQQKPGQRPKLLIYKASTLASGVPSRFSGSGSGTDFTLTISSVQPEDFATYYCQQGYTVTNVDKNTFGGGTKVEIKAAEPKSSDKTHTCPPCPAPEAAGGPSVFLFPPKPKDTLMISRTPEVTCVVVSVSHEDPEVKFNWYVDGVEVHNAKTKPREEQYNSTYRVVSVLTVLHQDWLNGKEYKCKVSNKALPAPIEKTISKAKGQPREPQVYVLPPSRDELTKNQVSLLCLVKGFYPSDIAVEWESNGQPENNYLTWPPVLDSDGSFFLYSKLTVDKSRWQQGNVFSCSVMHEALHNHYTQKSLSLSPG
notes: CD3 Fab with C-term Cldn18.2 scFv x Cldn18.2 scFv Fc with wildtype (WT) PD-1 attached to CD3 LC (N-term)
B4: v38743 (other)
heavy 1: EVQLVESGGGLVQPGGSLRLSCAASGVTFNYYGMSWIRQAPGKGLEWVASITSSGGRIYYPDSVKGRFTISRENTQKTLYLQMNSLRAEDTAVYYCTLDGRDGWVAYWGQGTLVTVSSASTKGPSVFPLAPSSKSTSGGTAALGCLVKDYFPEPVTVSWNSGALTSGVHTFPAVLQSSGLYSLSSVVTVPSSSLGTQTYICNVNHKPSNTKVDKKVEPKSCDKTHTCPPCPAPEAAGGPSVFLFPPKPKDTLMISRTPEVTCVVVSVSHEDPEVKFNWYVDGVEVHNAKTKPREEQYNSTYRVVSVLTVLHQDWLNGKEYKCKVSNKALPAPIEKTISKAKGQPREPQVYVYPPSRDELTKNQVSLTCLVKGFYPSDIAVEWESNGQPENNYKTTPPVLDSDGSFALVSKLTVDKSRWQQGNVFSCSVMHEALHNHYTQKSLSLSPGGGGGSGQVQLVESGGGLVQPGGSLRLSCSVSGIDLSSNPMIWVRQAPGKGLQYIGIIDTDGSTYYADWAKGRFTISKDSTTVYLQINSPRAEDTAVYYCARRLHGSSNGYYDDLWGQGTLVTVSSGGGGSGGGGSGGGGSGGGGSDGQMTQSPSSVSASVGDRVTITCQASQSIYSYLSWYQQKPGQRPKLLIYKASTLASGVPSRFSGSGSGTDFTLTISSVQPEDFATYYCQQGYTVTNVDKNTFGGGTKVEIK
light: NPPTFSPALLVVTEGDNATFTCSFSNTSESFVLNWYRMSPSNQTDKLAAFPEDRSQPGQDARFRVTQLPNGRDFHMSVVRARRNDSGTYLCGAISLAPKLQIKESLRAELRVTEGGGGSGNFMLTQPHSVSESPGKTVTISCKRNTGNIGSNYVNWYQQHEGSSPTTIIYRNDKRPDGVSDRFSGSIDRSSKSASLTISNLKTEDEADYFCQSYSSGFIFGGGTKLTVLGQPKAAPSVTLFPPSSEELQANKATLVCLISDFYPGAVTVAWKADSSPVKAGVETTTPSKQSNNKYAASSYLSLTPEQWKSHRSYSCQVTHEGSTVEKTVAPTECS
heavy 2: QVQLVESGGGLVQPGGSLRLSCSVSGIDLSSNPMIWVRQAPGKGLQYIGIIDTDGSTYYADWAKGRFTISKDSTTVYLQINSPRAEDTAVYYCARRLHGSSNGYYDDLWGQGTLVTVSSGGGGSGGGGSGGGGSGGGGSDGQMTQSPSSVSASVGDRVTITCQASQSIYSYLSWYQQKPGQRPKLLIYKASTLASGVPSRFSGSGSGTDFTLTISSVQPEDFATYYCQQGYTVTNVDKNTFGGGTKVEIKAAEPKSSDKTHTCPPCPAPEAAGGPSVFLFPPKPKDTLMISRTPEVTCVVVSVSHEDPEVKFNWYVDGVEVHNAKTKPREEQYNSTYRVVSVLTVLHQDWLNGKEYKCKVSNKALPAPIEKTISKAKGQPREPQVYVLPPSRDELTKNQVSLLCLVKGFYPSDIAVEWESNGQPENNYLTWPPVLDSDGSFFLYSKLTVDKSRWQQGNVFSCSVMHEALHNHYTQKSLSLSPG

What was measured:
Human CD3 (recombinant) = Human CD3 (recombinant) (human); assay: SPR, CD3 amine-coupled, variant as analyte, 1:1 model
Chain of Human CD3 (recombinant) (human) (chain, as listed by the source): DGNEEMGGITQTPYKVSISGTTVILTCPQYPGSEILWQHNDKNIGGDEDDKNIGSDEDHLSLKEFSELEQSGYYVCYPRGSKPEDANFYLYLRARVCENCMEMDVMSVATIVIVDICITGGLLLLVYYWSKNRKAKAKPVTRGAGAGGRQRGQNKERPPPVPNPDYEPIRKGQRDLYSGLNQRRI

Human PD-L1 = target: T1, Human PD-L1 (human, UniProt Q9NZQ7 19-239); assay: SPR, PD-L1 amine-coupled, variant as analyte, 1:1 model
T1 construct: Amine-coupled to a CM5 chip for SPR; also called recombinant human PD-L1
T1 sequence (Q9NZQ7 19-239 limits assumed): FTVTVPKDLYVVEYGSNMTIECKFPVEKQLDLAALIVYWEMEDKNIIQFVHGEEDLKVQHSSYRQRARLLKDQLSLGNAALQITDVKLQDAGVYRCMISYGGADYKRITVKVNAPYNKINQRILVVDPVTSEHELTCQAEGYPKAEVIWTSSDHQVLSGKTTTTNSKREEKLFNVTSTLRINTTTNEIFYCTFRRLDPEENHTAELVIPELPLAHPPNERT

Binder	Kd (Human CD3 (recombinant)) [nM]	Kd (Human PD-L1) [nM]
B1	30	510
B2	18	95
B3	190	1900
B4	120	220
